Results on five molecules are retold here after PMC5519985 (Nature Communications, 2017).

The target of one assay is IL-13Rα1 (Homo sapiens) (UniProt P78552). The conditions noted are these: cited from earlier work.
The next assay deals with HaloTag-IL-13Rα1 (UniProt P78552). As to the kind of experiment: particle image cross-correlation (PICCS) of single molecule localizations on live cells; HeLa cells co-expressing ^DY647IL-4Rα and ^TMRIL-13Rα1, without and with ligand; correlated fraction α; effective 2D constant by the law of mass action from α and the surface concentrations corrected for the degree of labelling.

For a further assay, the target named is IL-4Rα (Homo sapiens) (UniProt P24394). The conditions noted are these: cited from earlier work.
Assay [1] concerns the target SNAPf-IL-13Rα1-TM (IL-13Rα1 truncated after the transmembrane domain). As to the kind of experiment: single molecule co-localization and co-tracking (dual-colour TIRF microscopy); ^DY547IL-4Rα-TM and ^DY647IL-13Rα1-TM reconstituted into polymer-supported membranes (PSM); ligand from 10 pM up to 50 μM, 5 min equilibration; equilibrium model fitted to the dimerization curves.

Assay [2] concerns the target T1, IL-4Rα-EC/IL-4D binary complex on the SSM (UniProt P05112 25-153; P24394 26-232, H59Y | K84D, CoA-ATTO 488 on the ybbR-tag).
T1 construct: interleukin-4; IL-4Rα, ectodomain; Chains as m2 and m10; source: formed on the solid-supported membrane from m2 and m10; not shown: ybbR-tag, N-terminal, kept; His10, C-terminal, kept
T1 sequence (looked up) 1: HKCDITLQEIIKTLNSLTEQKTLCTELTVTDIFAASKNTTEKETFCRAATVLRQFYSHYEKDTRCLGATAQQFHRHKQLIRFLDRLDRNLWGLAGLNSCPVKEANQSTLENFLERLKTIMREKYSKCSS
T1 sequence (looked up) 2: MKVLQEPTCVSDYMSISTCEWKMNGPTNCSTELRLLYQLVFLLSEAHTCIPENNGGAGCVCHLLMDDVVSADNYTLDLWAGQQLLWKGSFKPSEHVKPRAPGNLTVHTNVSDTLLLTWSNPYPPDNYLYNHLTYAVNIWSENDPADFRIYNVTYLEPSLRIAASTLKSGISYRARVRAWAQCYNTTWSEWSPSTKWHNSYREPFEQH
The assay can be described thus: TIRFS-RIf (total internal reflection fluorescence spectroscopy with reflectance interference); SSM with IL-4Rα-EC and IL-13Rα1-EC; dissociation of ^AT488IL-4D while free IL-13Rα1-EC is blocked by injection of IL-13 (Supplementary Fig. 7). The conditions noted are these: both partners purified.

By Kd is commonly meant a measure of binding affinity in units of concentration. Regarding IL-4 (from UniProt P05112), the Kd with IL-13Rα1 (Homo sapiens) was 2.5 µM.
For “IL-4/^DY647IL-4Rα binary complex in the plasma membrane of HeLa cells (from UniProt P05112 25-153; P24394 26-825)”, in the assay with HaloTag-IL-13Rα1, the correlated fraction α (PICCS) was found to be 11% and the effective 2D equilibrium dissociation constant (molecules μm^−2) was found to be 0.1.
Turning to “IL-13/IL-13Rα1-EC complex (from UniProt P35225)”, in the assay with IL-4Rα (Homo sapiens), the equilibrium dissociation constant (Kd) is 0.015 µM.
Consider “IL-4/^DY547IL-4Rα-TM binary complex in the PSM (from UniProt P05112 25-153)”, for which, in assay [1], the 2D equilibrium dissociation constant (molecules μm^−2) was found to be 1.6.

B1: IL-13Rα1-EC (ectodomain of IL-13Rα1 with C-terminal decahistidine tag) (domain or fragment, UniProt P78552 22-343, looked up)
chain: GGGGAAPTETQPPVTNLSVSVENLCTVIWTWNPPEGASSNCSLWYFSHFGDKQDKKIAPETRRSIEVPLNERICLQVGSQCSTNESEKPSILVEKCISPPEGDPESAVTELQCIWHNLSYMKCSWLPGRNTSPDTNYTLYYWHRSLEKIHQCENIFREGQYFGCSFDLTKVKDSSFEQHSVQIMVKDNAGKIKPSFNIVPLTSRVKPDPPHIKNLSFHNDDLYVQWENPQNFISRCLFYEVEVNNSQTETHNVFYVQEAKCENPEFERNVENTSCFMVPGVLPDTLNTVRIRVKTNKLCYEDDKLWSNWSQEMSIGKKRNST
modifications: CoA-Alexa Fluor 568 on the ybbR-tag in the FRET experiments (^AF568IL-13Rα1-EC); else unlabelled
With B1, the binding result in assay [2] is “binds”.
